B1: Azoarcus group I ribozyme (parent)
chain: GUGCCUUGCGCCGGGAAACCACGCAAGGGAUGGUGUCAAAUUCGGCGAAACCUAAGCGCCCGCCCGGGCGUAUGGCAACGCCGAGCCAAGCUUCGGCGCCUGCGCCGAUGAAGGUGUAGAGACUAGACGGCACCCACCUAAGGCAAACGCUAUGGUGAAGGCAUAGUCCAGGGAGUGGCGAAAGUCACACAAACCGG

Variants of: B1
Test: reverse-splicing fitness (ratio to wild type); higher = more active; in vitro selection; Mg2+ level not given
Method in brief: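 An in vitro group I ribozyme library with randomized positions was T7-transcribed and gel-purified. In triplicate, 10 pmol RNA in EPPS pH 7.5 was reacted with 50 pmoles of a 30-nt RNA substrate for 1 h at 37 °C across several added MgCl2 levels (1–48 mM), then stopped with EDTA. Products were reverse transcribed from a substrate-complementary primer, PCR-amplified and sequenced (HiSeq 4000). Fitness is a variant's read proportion after selection over that before, normalised to wild type.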

First: GUGCCUUGCGCCGGGAAACCACGCAAGGGAUGGUGUCAAAUUCGGCGAAACCUAAGCGCCCGCCCGGGCGUAUGGCAACGCGGAGCCAAGCUUCGGCGCCUGCGCCGAUGUAGGUGUAGUGACUAGACGGCACCCACCUAAGGCCAACGGUAUGGUGAAGGCAUAGUCAAGGGAGAGGCGAAAGUCACACAAACCGG
Second: GUGCCUUGCGCCGGGAAACCACGCAAGGGAUGGUGUCAAAUUCGGCGAAACCUAAGCGCCCGCCCGGGCGUAUGGCAACGCGGAGCCAAGCUUCGGCGCCUGCGCCGAUGUAGGUGUAGUGACUAGACGGCACCCACCUAAGGCCAACGGUAUGGUGAAGGCAUAGUCAAGGGAGGGGCGAAAGUCACACAAACCGG
The reverse-splicing fitness of the first is higher: 0.00316 for the first, 0.00246 for the second.

Going from GUGCCUUGCGCCGGGAAACCACGCAAGGGAUGGUGUCAAAUUCGGCGAAACCUAAGCGCCCGCCCGGGCGUAUGGCAACGCGGAGCCAAGCUUCGGCGCCUGCGCCGAUGUAGGUGUAGUGACUAGACGGCACCCACCUAAGGCCAACGGUAUGGUGAAGGCAUAGUCAAGGGAGCGGCGAAAGUCACACAAACCGG to GUGCCUUGCGCCGGGAAACCACGCAAGGGAUGGUGUCAAAUUCGGCGAAACCUAAGCGCCCGCCCGGGCGUAUGGCAACGCGGAGCCAAGCUUCGGCGCCUGCGCCGAUGUAGGUGUAGUGACUAGACGGCACCCACCUAAGGCCAACGGUAUGGUGAAGGCAUAGUCUAGGGAGAGGCGAAAGUCACACAAACCGG, the reverse-splicing fitness rises from 0.00248 to 0.00273.

Compared with GUGCCUUGCGCCGGGAAACCACGCAAGGGAUGGUGUCAAAUUCGGCGAAACCUAAGCGCCCGCCCGGGCGUAUGGCAACGCGGAGCCAAGCUUCGGCGCCUGCGCCGAUGUAGGUGUAGGGACUAGACGGCACCCACCUAAGGCAAACGCUAUGGUGAAGGCAUAGUCCAGGGAGGGGCGAAAGUCACACAAACCGG, GUGCCUUGCGCCGGGAAACCACGCAAGGGAUGGUGUCAAAUUCGGCGAAACCUAAGCGCCCGCCCGGGCGUAUGGCAACGCGGAGCCAAGCUUCGGCGCCUGCGCCGAUGUAGGUGUAGUGACUAGACGGCACCCACCUAAGGCCAACGAUAUGGUGAAGGCAUAGUCCAGGGAGUGGCGAAAGUCACACAAACCGG is lower in reverse-splicing fitness: 0.00905 for the first, 0.00458 for the second.

First: GUGCCUUGCGCCGGGAAACCACGCAAGGGAUGGUGUCAAAUUCGGCGAAACCUAAGCGCCCGCCCGGGCGUAUGGCAACGCGGAGCCAAGCUUCGGCGCCUGCGCCGAUGUAGGUGUAGUGACUAGACGGCACCCACCUAAGGCCAACGGUAUGGUGAAGGCAUAGUCCAGGGAGUGGCGAAAGUCACACAAACCGG
Second: GUGCCUUGCGCCGGGAAACCACGCAAGGGAUGGUGUCAAAUUCGGCGAAACCUAAGCGCCCGCCCGGGCGUAUGGCAACGCGGAGCCAAGCUUCGGCGCCUGCGCCGAUGUAGGUGUAGUGACUAGACGGCACCCACCUAAGGCCAACGGUAUGGUGAAGGCAUAGUCGAGGGAGGGGCGAAAGUCACACAAACCGG
The reverse-splicing fitness of the first is higher: 0.00763 for the first, 0.00237 for the second.

Going from GUGCCUUGCGCCGGGAAACCACGCAAGGGAUGGUGUCAAAUUCGGCGAAACCUAAGCGCCCGCCCGGGCGUAUGGCAACGCGGAGCCAAGCUUCGGCGCCUGCGCCGAUGUAGGUGUAGUGACUAGACGGCACCCACCUAAGGCCAACGGUAUGGUGAAGGCAUAGUCGAGGGAGAGGCGAAAGUCACACAAACCGG to GUGCCUUGCGCCGGGAAACCACGCAAGGGAUGGUGUCAAAUUCGGCGAAACCUAAGCGCCCGCCCGGGCGUAUGGCAACGCGGAGCCAAGCUUCGGCGCCUGCGCCGAUGUAGGUGUAGUGACUAGACGGCACCCACCUAAGGCCAACGGUAUGGUGAAGGCAUAGUCGAGGGAGCGGCGAAAGUCACACAAACCGG, the reverse-splicing fitness falls from 0.00357 to 0.00235.

Compared with GUGCCUUGCGCCGGGAAACCACGCAAGGGAUGGUGUCAAAUUCGGCGAAACCUAAGCGCCCGCCCGGGCGUAUGGCAACGCGGAGCCAAGCUUCGGCGCCUGCGCCGAUGUAGGUGUAGUGACUAGACGGCACCCACCUAAGGCCAACGAUAUGGUGAAGGCAUAGUCAAGGGAGAGGCGAAAGUCACACAAACCGG, GUGCCUUGCGCCGGGAAACCACGCAAGGGAUGGUGUCAAAUUCGGCGAAACCUAAGCGCCCGCCCGGGCGUAUGGCAACGCGGAGCCAAGCUUCGGCGCCUGCGCCGAUGUAGGUGUAGUGACUAGACGGCACCCACCUAAGGCCAACGAUAUGGUGAAGGCAUAGUCAAGGGAGCGGCGAAAGUCACACAAACCGG is higher in reverse-splicing fitness: 0.00214 for the first, 0.00215 for the second.

Compared with GUGCCUUGCGCCGGGAAACCACGCAAGGGAUGGUGUCAAAUUCGGCGAAACCUAAGCGCCCGCCCGGGCGUAUGGCAACGCGGAGCCAAGCUUCGGCGCCUGCGCCGAUGUAGGUGUAGUGACUAGACGGCACCCACCUAAGGCCAACGAUAUGGUGAAGGCAUAGUCAAGGGAGGGGCGAAAGUCACACAAACCGG, GUGCCUUGCGCCGGGAAACCACGCAAGGGAUGGUGUCAAAUUCGGCGAAACCUAAGCGCCCGCCCGGGCGUAUGGCAACGCGGAGCCAAGCUUCGGCGCCUGCGCCGAUGUAGGUGUAGUGACUAGACGGCACCCACCUAAGGCCAACGAUAUGGUGAAGGCAUAGUCCAGGGAGGGGCGAAAGUCACACAAACCGG is lower in reverse-splicing fitness: 0.0022 for the first, 0.00209 for the second.

Going from GUGCCUUGCGCCGGGAAACCACGCAAGGGAUGGUGUCAAAUUCGGCGAAACCUAAGCGCCCGCCCGGGCGUAUGGCAACGCGGAGCCAAGCUUCGGCGCCUGCGCCGAUGUAGGUGUAGUGACUAGACGGCACCCACCUAAGGCCAACGAUAUGGUGAAGGCAUAGUCCAGGGAGAGGCGAAAGUCACACAAACCGG to GUGCCUUGCGCCGGGAAACCACGCAAGGGAUGGUGUCAAAUUCGGCGAAACCUAAGCGCCCGCCCGGGCGUAUGGCAACGCGGAGCCAAGCUUCGGCGCCUGCGCCGAUGUAGGUGUAGUGACUAGACGGCACCCACCUAAGGCCAACGAUAUGGUGAAGGCAUAGUCCAGGGAGCGGCGAAAGUCACACAAACCGG, the reverse-splicing fitness rises from 0.00311 to 0.00373.

Going from GUGCCUUGCGCCGGGAAACCACGCAAGGGAUGGUGUCAAAUUCGGCGAAACCUAAGCGCCCGCCCGGGCGUAUGGCAACGCGGAGCCAAGCUUCGGCGCCUGCGCCGAUGUAGGUGUAGUGACUAGACGGCACCCACCUAAGGCCAACGCUAUGGUGAAGGCAUAGUCCAGGGAGUGGCGAAAGUCACACAAACCGG to GUGCCUUGCGCCGGGAAACCACGCAAGGGAUGGUGUCAAAUUCGGCGAAACCUAAGCGCCCGCCCGGGCGUAUGGCAACGCGGAGCCAAGCUUCGGCGCCUGCGCCGAUGUAGGUGUAGUGACUAGACGGCACCCACCUAAGGCCAACGAUAUGGUGAAGGCAUAGUCUAGGGAGGGGCGAAAGUCACACAAACCGG, the reverse-splicing fitness falls from 0.0386 to 0.00177.

Going from GUGCCUUGCGCCGGGAAACCACGCAAGGGAUGGUGUCAAAUUCGGCGAAACCUAAGCGCCCGCCCGGGCGUAUGGCAACGCGGAGCCAAGCUUCGGCGCCUGCGCCGAUGUAGGUGUAGUGACUAGACGGCACCCACCUAAGGCCAACGAUAUGGUGAAGGCAUAGUCUAGGGAGAGGCGAAAGUCACACAAACCGG to GUGCCUUGCGCCGGGAAACCACGCAAGGGAUGGUGUCAAAUUCGGCGAAACCUAAGCGCCCGCCCGGGCGUAUGGCAACGCGGAGCCAAGCUUCGGCGCCUGCGCCGAUGUAGGUGUAGUGACUAGACGGCACCCACCUAAGGCCAACGAUAUGGUGAAGGCAUAGUCUAGGGAGCGGCGAAAGUCACACAAACCGG, the reverse-splicing fitness falls from 0.00306 to 0.00247.

First: GUGCCUUGCGCCGGGAAACCACGCAAGGGAUGGUGUCAAAUUCGGCGAAACCUAAGCGCCCGCCCGGGCGUAUGGCAACGCGGAGCCAAGCUUCGGCGCCUGCGCCGAUGUAGGUGUAGUGACUAGACGGCACCCACCUAAGGCCAACGGUAUGGUGAAGGCAUAGUCAAGGGAGUGGCGAAAGUCACACAAACCGG
Second: GUGCCUUGCGCCGGGAAACCACGCAAGGGAUGGUGUCAAAUUCGGCGAAACCUAAGCGCCCGCCCGGGCGUAUGGCAACGCGGAGCCAAGCUUCGGCGCCUGCGCCGAUGUAGGUGUAGUGACUAGACGGCACCCACCUAAGGCCAACGGUAUGGUGAAGGCAUAGUCGAGGGAGUGGCGAAAGUCACACAAACCGG
The reverse-splicing fitness of the first is higher: 0.00362 for the first, 0.00344 for the second.

First: GUGCCUUGCGCCGGGAAACCACGCAAGGGAUGGUGUCAAAUUCGGCGAAACCUAAGCGCCCGCCCGGGCGUAUGGCAACGCGGAGCCAAGCUUCGGCGCCUGCGCCGAUGUAGGUGUAGUGACUAGACGGCACCCACCUAAGGCCAACGGUAUGGUGAAGGCAUAGUCUAGGGAGUGGCGAAAGUCACACAAACCGG
Second: GUGCCUUGCGCCGGGAAACCACGCAAGGGAUGGUGUCAAAUUCGGCGAAACCUAAGCGCCCGCCCGGGCGUAUGGCAACGCGGAGCCAAGCUUCGGCGCCUGCGCCGAUGUAGGUGUAGUGACUAGACGGCACCCACCUAAGGCCAACGAUAUGGUGAAGGCAUAGUCGAGGGAGAGGCGAAAGUCACACAAACCGG
The reverse-splicing fitness of the first is higher: 0.00336 for the first, 0.00283 for the second.

Compared with GUGCCUUGCGCCGGGAAACCACGCAAGGGAUGGUGUCAAAUUCGGCGAAACCUAAGCGCCCGCCCGGGCGUAUGGCAACGCGGAGCCAAGCUUCGGCGCCUGCGCCGAUGUAGGUGUAGUGACUAGACGGCACCCACCUAAGGCCAACGAUAUGGUGAAGGCAUAGUCGAGGGAGGGGCGAAAGUCACACAAACCGG, GUGCCUUGCGCCGGGAAACCACGCAAGGGAUGGUGUCAAAUUCGGCGAAACCUAAGCGCCCGCCCGGGCGUAUGGCAACGCGGAGCCAAGCUUCGGCGCCUGCGCCGAUGUAGGUGUAGUGACUAGACGGCACCCACCUAAGGCCAACGAUAUGGUGAAGGCAUAGUCGAGGGAGCGGCGAAAGUCACACAAACCGG is higher in reverse-splicing fitness: 0.00199 for the first, 0.00259 for the second.

Compared with GUGCCUUGCGCCGGGAAACCACGCAAGGGAUGGUGUCAAAUUCGGCGAAACCUAAGCGCCCGCCCGGGCGUAUGGCAACGCGGAGCCAAGCUUCGGCGCCUGCGCCGAUGUAGGUGUAGUGACUAGACGGCACCCACCUAAGGCAAACGCUAUGGUGAAGGCAUAGUCCAGGGAGUGGCGAAAGUCACACAAACCGG, GUGCCUUGCGCCGGGAAACCACGCAAGGGAUGGUGUCAAAUUCGGCGAAACCUAAGCGCCCGCCCGGGCGUAUGGCAACGCGGAGCCAAGCUUCGGCGCCUGCGCCGAUGUAGGUGUAGUGACUAGACGGCACCCACCUAAGGCCAACGAUAUGGUGAAGGCAUAGUCGAGGGAGUGGCGAAAGUCACACAAACCGG is lower in reverse-splicing fitness: 0.0462 for the first, 0.00272 for the second.

Compared with GUGCCUUGCGCCGGGAAACCACGCAAGGGAUGGUGUCAAAUUCGGCGAAACCUAAGCGCCCGCCCGGGCGUAUGGCAACGCGGAGCCAAGCUUCGGCGCCUGCGCCGAUGUAGGUGUAGUGACUAGACGGCACCCACCUAAGGCCAACGAUAUGGUGAAGGCAUAGUCUAGGGAGUGGCGAAAGUCACACAAACCGG, GUGCCUUGCGCCGGGAAACCACGCAAGGGAUGGUGUCAAAUUCGGCGAAACCUAAGCGCCCGCCCGGGCGUAUGGCAACGCGGAGCCAAGCUUCGGCGCCUGCGCCGAUGUAGGUGUAGUGACUAGACGGCACCCACCUAAGGCCAACGAUAUGGUGAAGGCAUAGUCAAGGGAGUGGCGAAAGUCACACAAACCGG is lower in reverse-splicing fitness: 0.0027 for the first, 0.00264 for the second.

Source: the RNAGym collection of RNA variant scans (doi:10.1093/molbev/msab373)
